# Literature values in article PMC8100458.
# Experiments:
# [1] = target: Asef peptide 181-192 (Homo sapiens); experiment: FP competition
# [2] = target: Asef peptide 183-190 (Homo sapiens); experiment: FP competition
# [3] = target: Asef peptide 179-193 (Homo sapiens); experiment: FP competition
# [4] = target: Asef peptide 187-192 (Homo sapiens); experiment: FP competition
# [5] = target: Asef (Homo sapiens) (UniProt Q9NR80); experiment: ITC
# Sequence of UniProt Q9NR80 (Q9NR80 whole entry): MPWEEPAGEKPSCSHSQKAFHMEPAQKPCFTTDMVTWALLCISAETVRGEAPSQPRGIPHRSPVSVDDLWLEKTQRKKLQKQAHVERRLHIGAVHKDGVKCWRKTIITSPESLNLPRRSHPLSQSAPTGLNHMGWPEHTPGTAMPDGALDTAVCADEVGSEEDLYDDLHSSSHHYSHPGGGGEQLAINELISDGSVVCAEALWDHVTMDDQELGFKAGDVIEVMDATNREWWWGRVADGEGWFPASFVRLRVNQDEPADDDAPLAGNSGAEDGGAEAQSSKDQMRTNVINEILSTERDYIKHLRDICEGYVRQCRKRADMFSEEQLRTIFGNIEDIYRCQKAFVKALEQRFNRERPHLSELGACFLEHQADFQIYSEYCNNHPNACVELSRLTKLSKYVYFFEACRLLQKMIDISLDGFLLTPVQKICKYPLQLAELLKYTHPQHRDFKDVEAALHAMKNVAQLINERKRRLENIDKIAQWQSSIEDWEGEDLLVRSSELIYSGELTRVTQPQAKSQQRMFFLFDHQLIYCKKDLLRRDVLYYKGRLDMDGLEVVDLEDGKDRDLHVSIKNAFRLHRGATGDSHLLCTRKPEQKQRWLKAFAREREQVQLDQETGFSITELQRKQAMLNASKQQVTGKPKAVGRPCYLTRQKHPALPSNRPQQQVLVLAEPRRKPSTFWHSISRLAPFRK
substance,measurement,setting,value
APC (from UniProt P25054),Ki,[1],49.1 µM
same,Ki,[2],> 300 µM
same,Ki,[3],17.1 µM
same,Ki,[4],> 300 µM
same,Kd,[5],0.0178 µM
